Reference: patent US20120316071A1 (published 2012)

Tests used:
[1] = target: T1, rHuman ErbB2/Fc Chimera, CF (R&D Systems Cat#1129-ER) (human, UniProt P04626 23-652); assay: ECL multispot (MSD) binding assay, antigen spotted on plate;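 further: purified Fab incubated 1 h at 20 °C on antigen spots, detected with TAG-labelled antibody, electrochemiluminescence compared with each well's blank, signal-to-blank ratio ≥4 counted as hit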
T1 construct: Bought recombinant protein; also called human epidermal growth factor 2 receptor

[2] = target: T2, rHuman EGF R/Fc Chimera, CF (R&D Systems Cat#344-ER) (human, UniProt P00533 25-645); assay: as above
T2 construct: Bought recombinant protein; also called epidermal growth factor receptor

[3] = target: T3, rHuman HGF R/c-MET/Fc Chimera, CF (R&D Systems Cat#358-MT/CF) (human, UniProt P08581 25-932); assay: as above
T3 construct: Bought recombinant protein; also called HGF R/Fc; hepatocyte growth factor receptor

[4] = target: T4, rHuman Notch-1/Fc Chimera, CF (R&D Systems Cat#3647-TK) (human, UniProt P46531 19-526); assay: as above
T4 construct: Bought recombinant protein

[5] = target: T5, rHuman CD44/Fc Chimera, CF (R&D Systems Cat#3660-CD) (human, UniProt P16070 21-220); assay: as above
T5 construct: Bought recombinant protein

[6] = target: T6, rHuman IGF-1 sR, (IGF-1 sR), CF (R&D Systems Cat#391-GR) (human, UniProt P08069 31-932); assay: as above
T6 construct: Bought recombinant soluble receptor; also called insulin-like growth factor-1 soluble receptor

[7] = target: T7, rHuman P-Cadherin/Fc Chimera, CF (R&D Systems Cat#861-PC) (human, UniProt P22223 108-654); assay: as above
T7 construct: Bought recombinant protein

[8] = target: T8, rHuman Erythropoietin R/Fc Chimera, CF (R&D Systems Cat#963-ER) (human, UniProt P19235 25-250); assay: as above
T8 construct: Bought recombinant protein; also called EPO R; EPO R/Fc
T8 sequence (looked up): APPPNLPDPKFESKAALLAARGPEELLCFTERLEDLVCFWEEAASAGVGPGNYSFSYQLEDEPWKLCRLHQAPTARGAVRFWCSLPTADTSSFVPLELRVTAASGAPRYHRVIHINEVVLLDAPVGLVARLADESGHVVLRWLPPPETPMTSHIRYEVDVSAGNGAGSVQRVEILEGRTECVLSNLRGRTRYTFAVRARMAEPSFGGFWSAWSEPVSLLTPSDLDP

[9] = target: T9, Recombinant Human DLL4 (R&D Systems Cat#1506-D4/CF) (human, UniProt Q9NR61 27-524); assay: as above
T9 construct: Bought recombinant protein; also called delta-like protein 4; rHuman DLL4

[10] = target: T10, Recombinant Human DLL4 (delta-like protein 4) (human, UniProt Q9NR61 27-524); assay: ECL (MSD) binding assay, DLL4 immobilised, Fab at 10 nM
T10 construct: also called rHuman DLL4; Delta-like 4

T3 sequence (P08581 25-932, change not shown): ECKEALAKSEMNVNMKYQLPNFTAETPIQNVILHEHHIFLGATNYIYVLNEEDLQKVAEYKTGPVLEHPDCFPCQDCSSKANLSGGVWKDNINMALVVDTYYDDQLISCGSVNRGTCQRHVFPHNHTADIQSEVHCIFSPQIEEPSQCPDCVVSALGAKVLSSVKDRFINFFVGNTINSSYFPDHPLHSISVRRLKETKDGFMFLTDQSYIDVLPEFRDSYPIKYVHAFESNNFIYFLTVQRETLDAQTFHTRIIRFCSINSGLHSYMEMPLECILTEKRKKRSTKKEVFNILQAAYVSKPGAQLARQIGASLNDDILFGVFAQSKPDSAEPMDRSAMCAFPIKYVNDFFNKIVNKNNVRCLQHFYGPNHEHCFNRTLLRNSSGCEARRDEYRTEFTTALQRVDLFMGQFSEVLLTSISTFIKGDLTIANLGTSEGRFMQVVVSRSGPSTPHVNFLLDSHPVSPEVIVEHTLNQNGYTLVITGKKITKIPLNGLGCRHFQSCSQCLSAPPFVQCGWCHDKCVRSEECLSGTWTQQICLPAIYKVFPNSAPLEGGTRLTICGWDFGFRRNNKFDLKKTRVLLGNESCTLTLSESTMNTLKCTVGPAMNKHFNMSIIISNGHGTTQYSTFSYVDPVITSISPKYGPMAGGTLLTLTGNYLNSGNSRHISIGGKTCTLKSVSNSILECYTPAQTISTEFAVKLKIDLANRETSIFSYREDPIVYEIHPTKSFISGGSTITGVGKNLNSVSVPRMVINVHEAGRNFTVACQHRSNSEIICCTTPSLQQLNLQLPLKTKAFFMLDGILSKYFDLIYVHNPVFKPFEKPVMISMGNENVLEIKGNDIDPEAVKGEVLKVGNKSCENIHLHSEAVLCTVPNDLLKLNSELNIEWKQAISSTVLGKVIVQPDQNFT

B1: Fab VH1-46_IGHD6-6*01_IGHJ1*01 S102A/S103P/S104F/H111F (APFF) & L6_IGKJ1*01 S31P (Fab, V domains shown)
VH: QVQLVQSGAEVKKPGASVKVSCKASGYTFTSYYMHWVRQAPGQGLEWMGIINPSGGSTSYAQKFQGRVTMTRDTSTSTVYMELSSLRSEDTAVYYCAREEYAPFSAEYFQFWGQGTLVTVSS
VL: EIVLTQSPATLSLSPGERATLSCRASQSVSPYLAWYQQKPGQAPRLLIYDASNRATGIPARFSGSGSGTDFTLTISSLEPEDFAVYYCQQRSNWPPWTFGQGTKVEIKR
notes: Tested as Fab (CH1 with His6/Flag tags, kappa CL) made in E. coli; also called APFF / S31P
ECL signal [1]: 372
ECL signal [2]: 488
ECL signal [3]: 431
ECL signal [4]: 461
ECL signal [5]: 466
ECL signal [6]: 404
ECL signal [7]: 493
ECL signal [8]: 594
ECL signal [9]: 53300

B2: Fab VH1-46_IGHD6-6*01_IGHJ1*01 S102A/S103P/S104F/H111F & L6_IGKJ1*01 (Fab, V domains shown)
VH: QVQLVQSGAEVKKPGASVKVSCKASGYTFTSYYMHWVRQAPGQGLEWMGIINPSGGSTSYAQKFQGRVTMTRDTSTSTVYMELSSLRSEDTAVYYCAREEYAPFSAEYFQFWGQGTLVTVSS
VL: not shown
notes: also called H:APFF & L:wt; APFF
Signal [10 nM Fab] [10]: 13500

B3: Fab VH1-46_IGHD6-6*01_IGHJ1*01 S102A/S103P/S104F/H111F (APFF) & L6_IGKJ1*01 S31V (Fab, V domains shown)
VH: QVQLVQSGAEVKKPGASVKVSCKASGYTFTSYYMHWVRQAPGQGLEWMGIINPSGGSTSYAQKFQGRVTMTRDTSTSTVYMELSSLRSEDTAVYYCAREEYAPFSAEYFQFWGQGTLVTVSS
VL: EIVLTQSPATLSLSPGERATLSCRASQSVSVYLAWYQQKPGQAPRLLIYDASNRATGIPARFSGSGSGTDFTLTISSLEPEDFAVYYCQQRSNWPPWTFGQGTKVEIKR
notes: Tested as Fab (CH1 with His6/Flag tags, kappa CL) made in E. coli; also called APFF / S31V
ECL signal [1]: 300
ECL signal [2]: 363
ECL signal [3]: 288
ECL signal [4]: 374
ECL signal [5]: 384
ECL signal [6]: 335
ECL signal [7]: 360
ECL signal [8]: 509
ECL signal [9]: 176000

B4: Fab VH1-46_IGHD6-6*01_IGHJ1*01 S102A/S103P/S104F/H111F & L6_IGKJ1*01 T56A (Fab, V domains shown)
VH: QVQLVQSGAEVKKPGASVKVSCKASGYTFTSYYMHWVRQAPGQGLEWMGIINPSGGSTSYAQKFQGRVTMTRDTSTSTVYMELSSLRSEDTAVYYCAREEYAPFSAEYFQFWGQGTLVTVSS
VL: EIVLTQSPATLSLSPGERATLSCRASQSVSSYLAWYQQKPGQAPRLLIYDASNRAAGIPARFSGSGSGTDFTLTISSLEPEDFAVYYCQQRSNWPPWTFGQGTKVEIKR
notes: also called APFF & L6_IGKJ1*01 T56A
Signal [10 nM Fab] [10]: 7260

B5: Fab VH1-46_IGHD6-6*01_IGHJ1*01 S102A/S103P/S104F/H111F & L6_IGKJ1*01 A51T (Fab, V domains shown)
VH: QVQLVQSGAEVKKPGASVKVSCKASGYTFTSYYMHWVRQAPGQGLEWMGIINPSGGSTSYAQKFQGRVTMTRDTSTSTVYMELSSLRSEDTAVYYCAREEYAPFSAEYFQFWGQGTLVTVSS
VL: EIVLTQSPATLSLSPGERATLSCRASQSVSSYLAWYQQKPGQAPRLLIYDTSNRATGIPARFSGSGSGTDFTLTISSLEPEDFAVYYCQQRSNWPPWTFGQGTKVEIKR
notes: also called APFF & L6_IGKJ1*01 A51T
Signal [10 nM Fab] [10]: 2850

B6: Fab VH1-46_IGHD6-6*01_IGHJ1*01 S102A/S103P/S104F/H111F & L6_IGKJ1*01 R54A (Fab, V domains shown)
VH: QVQLVQSGAEVKKPGASVKVSCKASGYTFTSYYMHWVRQAPGQGLEWMGIINPSGGSTSYAQKFQGRVTMTRDTSTSTVYMELSSLRSEDTAVYYCAREEYAPFSAEYFQFWGQGTLVTVSS
VL: EIVLTQSPATLSLSPGERATLSCRASQSVSSYLAWYQQKPGQAPRLLIYDASNAATGIPARFSGSGSGTDFTLTISSLEPEDFAVYYCQQRSNWPPWTFGQGTKVEIKR
notes: also called APFF & L6_IGKJ1*01 R54A
Signal [10 nM Fab] [10]: 11600

B7: Fab VH1-46_IGHD6-6*01_IGHJ1*01 S102A/S103P/S104F/H111F & L6_IGKJ1*01 D50A (Fab, V domains shown)
VH: QVQLVQSGAEVKKPGASVKVSCKASGYTFTSYYMHWVRQAPGQGLEWMGIINPSGGSTSYAQKFQGRVTMTRDTSTSTVYMELSSLRSEDTAVYYCAREEYAPFSAEYFQFWGQGTLVTVSS
VL: EIVLTQSPATLSLSPGERATLSCRASQSVSSYLAWYQQKPGQAPRLLIYAASNRATGIPARFSGSGSGTDFTLTISSLEPEDFAVYYCQQRSNWPPWTFGQGTKVEIKR
notes: also called APFF & L6_IGKJ1*01 D50A
Signal [10 nM Fab] [10]: 4230
